Numbered stars: 1 amine (or outer) side, 2 acyl side, 3 side chain; on linkers, the order of the positions; unused ones are H or OH. Square brackets hold non-standard residues; d marks the D form. Side chains are listed from the residue outwards. Ends that are not written are not given here. * marks the point of attachment. C20 diacid = O=C(O)CCCCCCCCCCCCCCCCCCC(=O)*; γGlu = O=C(O)[C@H](CCC(=O)[*:2])N[*:1]; αMeL = CC(C)C[C@](C)(N)C(=O)O; αMeK = C[C@](N)(CCCCN)C(=O)O; AEEA = NCCOCCOCC(=O)O; Aib = CC(C)(N)C(=O)O
T1: human GIP receptor (human, UniProt P48546 22-466)
T1 construct: whole, on cells; Used as crude membranes of stably transfected CHO cells; also called hGIPR
T1 sequence (looked up): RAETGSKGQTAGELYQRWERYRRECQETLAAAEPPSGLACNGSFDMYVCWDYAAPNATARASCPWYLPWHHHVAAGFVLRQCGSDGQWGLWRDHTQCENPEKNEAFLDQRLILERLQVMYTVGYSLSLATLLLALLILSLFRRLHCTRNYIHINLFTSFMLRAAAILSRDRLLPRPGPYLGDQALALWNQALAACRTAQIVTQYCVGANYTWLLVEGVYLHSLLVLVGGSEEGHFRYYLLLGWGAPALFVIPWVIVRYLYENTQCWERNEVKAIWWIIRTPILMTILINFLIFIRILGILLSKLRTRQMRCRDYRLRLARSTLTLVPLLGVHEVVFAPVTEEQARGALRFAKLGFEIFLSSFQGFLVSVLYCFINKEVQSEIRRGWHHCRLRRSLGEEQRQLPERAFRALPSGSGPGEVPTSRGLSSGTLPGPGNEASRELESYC

B1: Example 127 (peptide)
peptide: YXEGTXTSDISILLDKKAQXAFIEYLIEGGPSSGAPPPS
modifications: Aib2; αMeF6; K17((2-[2-(2-Amino-ethoxy)-ethoxy]-acetyl)2-(γ-Glu)-CO-(CH2)18-CO2H); Aib20; C-terminal NH2
B2: Example 129 (peptide)
peptide: YXEGTXTSDLSILLDKKAQXAFIEYLIEGGPSSGAPPPS
modifications: Aib2; αMeF6; K17((2-[2-(2-Amino-ethoxy)-ethoxy]-acetyl)2-(γ-Glu)-CO-(CH2)18-CO2H); Aib20; C-terminal NH2
B3: Example 21 (peptide)
peptide: Y[Aib]EGTFTSDYSI[αMeL]LDEK([AEEA-AEEA-γGlu-C20 diacid])AQ[αMeK]AFIEYLLEGGPSSGAPPPS-NH2
modifications: N-terminus assumed
SMILES: CC[C@H](C)[C@H](NC(=O)[C@H](Cc1ccccc1)NC(=O)[C@H](C)NC(=O)[C@](C)(CCCCN)NC(=O)[C@H](CCC(N)=O)NC(=O)[C@H](C)NC(=O)[C@H](CCCCNC(=O)COCCOCCNC(=O)COCCOCCNC(=O)CC[C@H](NC(=O)CCCCCCCCCCCCCCCCCCC(=O)O)C(=O)O)NC(=O)[C@H](CCC(=O)O)NC(=O)[C@H](CC(=O)O)NC(=O)[C@H](CC(C)C)NC(=O)[C@](C)(CC(C)C)NC(=O)[C@@H](NC(=O)[C@H](CO)NC(=O)[C@H](Cc1ccc(O)cc1)NC(=O)[C@H](CC(=O)O)NC(=O)[C@H](CO)NC(=O)[C@@H](NC(=O)[C@H](Cc1ccccc1)NC(=O)[C@@H](NC(=O)CNC(=O)[C@H](CCC(=O)O)NC(=O)C(C)(C)NC(=O)[C@@H](N)Cc1ccc(O)cc1)[C@@H](C)O)[C@@H](C)O)[C@@H](C)CC)C(=O)N[C@@H](CCC(=O)O)C(=O)N[C@@H](Cc1ccc(O)cc1)C(=O)N[C@@H](CC(C)C)C(=O)N[C@@H](CC(C)C)C(=O)N[C@@H](CCC(=O)O)C(=O)NCC(=O)NCC(=O)N1CCC[C@H]1C(=O)N[C@@H](CO)C(=O)N[C@@H](CO)C(=O)NCC(=O)N[C@@H](C)C(=O)N1CCC[C@H]1C(=O)N1CCC[C@H]1C(=O)N1CCC[C@H]1C(=O)N[C@@H](CO)C(N)=O
B4: Example 118 (peptide)
peptide: YXEGTXTSDYSIXLDEKAQXEFIEYLIEGGPSSGAPPPS
modifications: Aib2; αMeF(2F)6; αMeL13; K17((2-[2-(2-Amino-ethoxy)-ethoxy]-acetyl)2-(γ-Glu)-CO-(CH2)18-CO2H); Aib20; C-terminal NH2
B5: Example 66 (peptide)
peptide: YXEGTFTSDYSIXLDEKAQXAFIEYLLEGGPSSGAPPPS
modifications: Aib2; αMeL13; K17((2-[2-(2-Amino-ethoxy)-ethoxy]-acetyl)2-(γ-Glu)-CO-(CH2)18-CO2H); Aib20; C-terminal NH2
B6: Example 69 (peptide)
peptide: YXEGTXTSDYSIXLDKKAQXAFIEYLIEGGPSSGAPPPS
modifications: Aib2; αMeF6; αMeL13; K17((2-[2-(2-Amino-ethoxy)-ethoxy]-acetyl)2-(γ-Glu)-CO-(CH2)18-CO2H); Aib20; C-terminal NH2
B7: Example 53 (peptide)
peptide: HXEGTFTSDYSIXLDKKAQXAFIEYLIEGGPSSGAPPPS
modifications: Aib2; αMeL13; K17((2-[2-(2-Amino-ethoxy)-ethoxy]-acetyl)2-(γ-Glu)-CO-(CH2)18-CO2H); Aib20; C-terminal NH2
B8: Example 61 (peptide)
peptide: YXEGTFTSDYSIXLDSKAQXAFIEYLLEGGPSSGAPPPS
modifications: Aib2; αMeL13; K17((2-[2-(2-Amino-ethoxy)-ethoxy]-acetyl)2-(γ-Glu)-CO-(CH2)18-CO2H); Aib20; C-terminal NH2
B9: Example 128 (peptide)
peptide: YXEGTXTSDHSILLDKKAQXAFIEYLIEGGPSSGAPPPS
modifications: Aib2; αMeF6; K17((2-[2-(2-Amino-ethoxy)-ethoxy]-acetyl)2-(γ-Glu)-CO-(CH2)18-CO2H); Aib20; C-terminal NH2
B10: Example 62 (peptide)
peptide: YXEGTFTSDYSIXLDKKAQXAFIEYLIEGG
modifications: Aib2; αMeL13; K17((2-[2-(2-Amino-ethoxy)-ethoxy]-acetyl)2-(γ-Glu)-CO-(CH2)18-CO2H); Aib20; C-terminal NH2
B11: Example 65 (peptide)
peptide: YXEGTFTSDYSIXLDTKAQXAFIEYLIEGG
modifications: Aib2; αMeL13; K17((2-[2-(2-Amino-ethoxy)-ethoxy]-acetyl)2-(γ-Glu)-CO-(CH2)18-CO2H); Aib20; C-terminal NH2
B12: Example 63 (peptide)
peptide: YXEGTFTSDYSIXLDEKAQXAFIEYLIEGG
modifications: Aib2; αMeL13; K17((2-[2-(2-Amino-ethoxy)-ethoxy]-acetyl)2-(γ-Glu)-CO-(CH2)18-CO2H); Aib20; C-terminal NH2
B13: Example 64 (peptide)
peptide: YXEGTFTSDYSIXLDSKAQXAFIEYLIEGG
modifications: Aib2; αMeL13; K17((2-[2-(2-Amino-ethoxy)-ethoxy]-acetyl)2-(γ-Glu)-CO-(CH2)18-CO2H); Aib20; C-terminal NH2

Columns and labels:
[1] = molecular target: T1, human GIP receptor; assay: SPA, [125I]-GIP displacement, hGIPR membranes
[2] = molecular target: T2, human glucagon receptor (human, UniProt P47871 26-477); assay: SPA, [125I]-Gcg displacement, hGcgR membranes
T2 construct: whole, on cells; Used as crude membranes of stably transfected HEK293 cells; also called hGcgR; hGLcgR

[3] = molecular target: T3, human GLP-1 receptor (human, UniProt P43220 24-463); assay: SPA, [125I]-GLP-1 displacement, hGLP-1R membranes
T3 construct: whole, on cells; Used as crude membranes of stably transfected HEK293 cells; also called hGLP1R; hGLP-1R

T2 sequence (P47871 26-477): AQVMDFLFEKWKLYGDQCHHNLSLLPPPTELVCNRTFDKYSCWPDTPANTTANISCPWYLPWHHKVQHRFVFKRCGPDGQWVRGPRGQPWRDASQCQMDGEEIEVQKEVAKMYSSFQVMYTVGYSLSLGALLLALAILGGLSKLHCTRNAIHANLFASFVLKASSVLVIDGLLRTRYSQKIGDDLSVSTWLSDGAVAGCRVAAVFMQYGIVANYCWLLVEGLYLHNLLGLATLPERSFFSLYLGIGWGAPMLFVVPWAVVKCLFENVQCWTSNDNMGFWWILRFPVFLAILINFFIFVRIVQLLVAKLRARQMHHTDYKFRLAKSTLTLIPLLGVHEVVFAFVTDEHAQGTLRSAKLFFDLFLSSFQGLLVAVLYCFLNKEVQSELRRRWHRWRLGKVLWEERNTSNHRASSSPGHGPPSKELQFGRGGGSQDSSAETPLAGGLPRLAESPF

Binder	Ki [1]	Ki [2]	Ki [3]
B1	0.126 nM	43.6 nM	1.86 nM
B2	0.0278 nM	14.9 nM	1 nM
B3	0.529 nM	149 nM	14.5 nM
B4	0.0859 nM	53 nM	6.1 nM
B5	0.106 nM	93.7 nM	7.53 nM
B6	0.03 nM	22.1 nM	1.22 nM
B7	0.188 nM	216 nM	1.23 nM
B8	0.102 nM	110 nM	11.1 nM
B9	0.0625 nM	433 nM	1.88 nM
B10	0.0545 nM	168 nM	2.03 nM
B11	0.0643 nM	194 nM	4.53 nM
B12	0.141 nM	273 nM	7.79 nM
B13	0.0866 nM	260 nM	4.86 nM

Reference: patent US20200024322A1 (Eli Lilly, published 2020)
